Assay results taken from publication PMC8469222, “First Dye-Decolorizing Peroxidase from an Ascomycetous Fungus Secreted by Xylaria grammica” (Biomolecules, 2021).

Key:
[1] = molecular target: T1, XgrDyP (Xylaria grammica, UniProt A0A439DJS1); assay: spectrophotometric decolorization at […] nm, Lineweaver-Burk; assay type: biochemical; settings: apparent; 50 mM sodium citrate pH 4.5, H2O2 co-substrate held constant, room temperature
T1 construct: gene EKO27_g488; wild-type, natively secreted, purified from Xylaria grammica culture liquid (AEX, SEC, MonoQ); 49 kDa on SDS-PAGE; heme protein
T1 sequence (A0A439DJS1 1-493): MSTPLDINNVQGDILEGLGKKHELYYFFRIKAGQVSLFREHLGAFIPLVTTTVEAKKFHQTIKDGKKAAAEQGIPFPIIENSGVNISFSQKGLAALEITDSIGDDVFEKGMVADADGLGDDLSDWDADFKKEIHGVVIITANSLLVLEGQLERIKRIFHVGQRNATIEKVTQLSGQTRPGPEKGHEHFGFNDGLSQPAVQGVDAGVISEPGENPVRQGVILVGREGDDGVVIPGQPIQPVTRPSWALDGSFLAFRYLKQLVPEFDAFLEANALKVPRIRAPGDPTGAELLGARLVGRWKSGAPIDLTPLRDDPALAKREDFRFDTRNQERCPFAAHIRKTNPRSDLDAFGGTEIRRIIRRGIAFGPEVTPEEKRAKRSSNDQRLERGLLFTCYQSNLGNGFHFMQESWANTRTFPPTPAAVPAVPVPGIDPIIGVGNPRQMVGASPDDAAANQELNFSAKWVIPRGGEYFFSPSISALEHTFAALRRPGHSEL

[2] = substrate: CCn1c(=NN=c2sc3cc(S(=O)(=O)O)ccc3n2CC)sc2cc(S(=O)(=O)O)ccc21; assay: purified protein; assay type: biochemical, Xylaria grammica; settings: apparent, 50 mM sodium citrate pH 4.5, H2O2 co-substrate held constant, room temperature
[3] = substrate: COc1cccc(OC)c1O; assay: purified protein; assay type: biochemical, Xylaria grammica; settings: apparent, 50 mM sodium citrate pH 4.5, H2O2 co-substrate held constant, room temperature

Molecule Nc1c(S(=O)(=O)O)cc(Nc2ccc(S(=O)(=O)O)c(Nc3nc(Cl)nc(Nc4cccc(S(=O)(=O)O)c4)n3)c2)c2c1C(=O)c1ccccc1C2=O [RBlue5] has a Km [1] of 41 µM.

B1: XgrDyP (Xylaria grammica) (protein)
chain: T1 sequence (A0A439DJS1 1-493)
notes: wild-type, natively secreted, purified from Xylaria grammica culture liquid (AEX, SEC, MonoQ); 49 kDa on SDS-PAGE; heme protein
B1 was tested, and the Km [2] was 41 µM, the kcat [2] was 12 s⁻¹ and the kcat/Km [2] was 287000 M⁻¹ s⁻¹. The Km [3] was 12 µM, the kcat [3] was 29 s⁻¹ and the kcat/Km [3] was 2.5e+06 M⁻¹ s⁻¹.
